In IntAct's records for PubMed 19366670:

Biological target: T1, asia_bpt4 asiA (UniProt P32267)
T1 sequence: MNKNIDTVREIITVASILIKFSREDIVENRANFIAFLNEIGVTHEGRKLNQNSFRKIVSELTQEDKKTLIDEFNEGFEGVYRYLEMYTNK

Substance	effect of a mutation on the interaction
DNA-directed RNA polymerase subunit beta (Escherichia coli (strain K12)) (from UniProt P0A8V2) G907K	decreasing interaction strength
DNA-directed RNA polymerase subunit beta (Escherichia coli (strain K12)) (from UniProt P0A8V2) I905A;F906A	decreasing interaction strength
